Laboratory results taken from patent US20190055547A1.

Assays:
Pak1 [1] = target: Pak1 (UniProt Q13153); test: competitive phage ELISA IC50 compared with KD (~IC50) of primary-screen monobodies
Pak1 [2] = target: Pak1 (UniProt Q13153); test: competitive phage ELISA: biotinylated Pak1 immobilised, varying non-biotinylated Pak1 mixed with phage displaying D3

B1: Clone D3 (designed binder, not shown: large carriers; small tags and cut ends)
chain: EQKLISEEDLMAVSDVPRKLEVVAATPTSLLISWDAPWKKTRYYRITYGETGGNSPVQEFTVPGSKSTATISGLKPGVDYTITVYAVTASWPWSKPISINYRTSGGGGSGGGGSGGGGSGGGGSGGGGSDYKDDDDKLASAMAVSDVPRKLEVVAATPTSLLISWDAPSRHIYYYRITYGETGGNSPVQEFTVPGSKSTATISGLKPGVDYTITVYAVTDLYSNSKPISINYRTS
Pak1 [1]
  fold improvement over the binding of the monobodies from the primary screen: 1000 fold
Pak1 [2]
  IC50: 1.5 nM
